Assay results from patent US20190055314A1 (ADAGENE, published 2019).
Positions count from the first letter of the chain named.

T1: mouse CD137 protein (Biacore) (mouse, UniProt P20334 24-178, limits assumed)
T1 construct: Construct used as SPR analyte not described
T1 sequence: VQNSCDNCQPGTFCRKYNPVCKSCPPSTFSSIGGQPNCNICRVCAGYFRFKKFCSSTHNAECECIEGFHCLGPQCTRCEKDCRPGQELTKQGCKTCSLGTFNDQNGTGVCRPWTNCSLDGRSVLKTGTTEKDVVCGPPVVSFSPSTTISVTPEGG

T2: GITR overexpressed on HEK293F cells (UniProt Q9Y5U5 26-241, limits assumed)
T2 construct: whole, on cells
T2 sequence (looked up): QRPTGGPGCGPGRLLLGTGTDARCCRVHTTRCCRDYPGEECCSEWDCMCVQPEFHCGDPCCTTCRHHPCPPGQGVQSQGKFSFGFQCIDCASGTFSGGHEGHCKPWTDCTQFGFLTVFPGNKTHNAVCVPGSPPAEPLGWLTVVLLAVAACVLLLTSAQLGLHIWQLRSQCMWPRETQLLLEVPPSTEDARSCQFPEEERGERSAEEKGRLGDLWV

T3: CD95
T3 chain: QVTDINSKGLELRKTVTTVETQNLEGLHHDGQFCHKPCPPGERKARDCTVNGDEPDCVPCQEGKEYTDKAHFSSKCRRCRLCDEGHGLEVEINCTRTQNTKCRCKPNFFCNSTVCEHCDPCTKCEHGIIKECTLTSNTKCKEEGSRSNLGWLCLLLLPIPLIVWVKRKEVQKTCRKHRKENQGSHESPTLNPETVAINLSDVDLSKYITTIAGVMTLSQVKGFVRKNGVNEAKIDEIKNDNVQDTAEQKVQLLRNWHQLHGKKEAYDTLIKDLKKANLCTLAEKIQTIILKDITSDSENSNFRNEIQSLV

T4: CD120a
T4 chain: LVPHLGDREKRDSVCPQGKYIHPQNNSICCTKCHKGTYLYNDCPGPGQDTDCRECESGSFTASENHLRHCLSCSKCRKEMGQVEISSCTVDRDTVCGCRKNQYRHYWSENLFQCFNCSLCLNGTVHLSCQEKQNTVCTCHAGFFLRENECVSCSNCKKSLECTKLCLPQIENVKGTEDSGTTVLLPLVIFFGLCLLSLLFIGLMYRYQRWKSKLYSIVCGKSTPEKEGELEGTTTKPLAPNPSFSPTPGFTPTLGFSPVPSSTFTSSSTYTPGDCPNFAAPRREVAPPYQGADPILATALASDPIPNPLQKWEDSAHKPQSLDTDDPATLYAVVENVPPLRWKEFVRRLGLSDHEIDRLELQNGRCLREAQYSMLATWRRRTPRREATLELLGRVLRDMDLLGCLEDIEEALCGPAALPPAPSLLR

T5: mouse CD137 fused with human FC fragment (mouse, UniProt P20334 24-178, limits assumed)
T5 construct: also called mouse CD137-Fc; not shown: human Fc fragment
T5 sequence: T1 sequence

T6: CD27 overexpressed on HEK293F cells (UniProt P26842 20-260, limits assumed)
T6 construct: whole, on cells
T6 sequence (looked up): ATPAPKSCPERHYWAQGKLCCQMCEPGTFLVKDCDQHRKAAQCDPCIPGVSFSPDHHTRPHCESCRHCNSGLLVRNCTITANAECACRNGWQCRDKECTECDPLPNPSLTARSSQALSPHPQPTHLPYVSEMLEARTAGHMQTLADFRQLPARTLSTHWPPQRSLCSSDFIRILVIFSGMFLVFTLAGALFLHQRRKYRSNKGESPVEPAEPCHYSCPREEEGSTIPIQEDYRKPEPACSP

T7: OX40 overexpressed on HEK293F cells (UniProt P43489 29-277, limits assumed)
T7 construct: whole, on cells
T7 sequence (looked up): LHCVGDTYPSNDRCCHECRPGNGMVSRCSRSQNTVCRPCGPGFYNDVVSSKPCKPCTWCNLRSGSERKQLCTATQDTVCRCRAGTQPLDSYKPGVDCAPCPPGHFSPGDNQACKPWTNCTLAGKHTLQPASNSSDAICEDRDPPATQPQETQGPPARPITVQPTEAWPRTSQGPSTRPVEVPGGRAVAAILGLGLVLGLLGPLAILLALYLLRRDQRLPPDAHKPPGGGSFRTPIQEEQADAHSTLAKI

T8: full-length mouse CD137 on the cell surface (mouse, UniProt P20334 24-178)
T8 sequence: T1 sequence

B1: AG10059 (antibody, human IgG4 S228P, kappa, V domains shown)
VH: EVQLVESGGGLVQPGGSLRLSCAASGYSITSGHYWAWIRQAPGKGLEWVSSISGYGSTTYYADSVKGRFTISRDNSKNTLYLQLNSLRAEDTAVYYCARGGSDAVLGDWFAYWGQGTLVTVSS
VL: DIQLTQSPSSLSASVGDRVTITCRASQGIGSFLAWYQQKPGKAPKLLIYDASNLETGVPSRFSGSGSGTDFTLTISSLQPEDFATYYCQQGYYLWTFGQGTKVEIKR
B2: AG10058 (antibody, human IgG4 S228P, kappa, V domains shown)
VH: EVQLVESGGGLVQPGGSLRLSCAASGFSLSTSGVGVGWIRQAPGKGLEWLALIDWDDDKYYSPSLKSRLTISRDNSKNTLYLQLNSLRAEDTAVYYCARGGSDTVLGDWFAYWGQGTLVTVSS
VL: B1 VL with G28S, I29V, G30S, S31P, F32Y, N53S, T56S, Y93S

Key:
[1] = target: T1, mouse CD137 protein (Biacore); experiment: SPR Biacore
[2] = target: T2, GITR overexpressed on HEK293F cells; experiment: flow cytometry, HEK293F cells expressing the receptor [Cont.]
[3] = target: T9, CD40 overexpressed on HEK293F cells (UniProt P25942 21-277, limits assumed); experiment: as above
T9 construct: whole, on cells

CD95 = target: T3, CD95; experiment: as above
CD120a = target: T4, CD120a; experiment: as above
[4] = target: T5, mouse CD137 fused with human FC fragment; experiment: ELISA, CD137-Fc coated in serial dilution, IgG 5 µg/mL, protein L-HRP
[5] = target: T2, GITR overexpressed on HEK293F cells; experiment: flow cytometry, HEK293F cells expressing the receptor, antibody 100 nM
[6] = target: T6, CD27 overexpressed on HEK293F cells; experiment: as above
[7] = target: T9, CD40 overexpressed on HEK293F cells; experiment: as above
[8] = target: T7, OX40 overexpressed on HEK293F cells; experiment: as above
[9] = target: T8, full-length mouse CD137 on the cell …; experiment: flow cytometry, HEK293F
[10] = target: T2, GITR overexpressed on HEK293F cells; experiment: flow cytometry, HEK293F cells expressing the receptor
[11] = target: T6, CD27 overexpressed on HEK293F cells; experiment: as above
[12] = target: T9, CD40 overexpressed on HEK293F cells; experiment: as above
[13] = target: T7, OX40 overexpressed on HEK293F cells; experiment: as above

T9 sequence (P25942 21-277 limits assumed): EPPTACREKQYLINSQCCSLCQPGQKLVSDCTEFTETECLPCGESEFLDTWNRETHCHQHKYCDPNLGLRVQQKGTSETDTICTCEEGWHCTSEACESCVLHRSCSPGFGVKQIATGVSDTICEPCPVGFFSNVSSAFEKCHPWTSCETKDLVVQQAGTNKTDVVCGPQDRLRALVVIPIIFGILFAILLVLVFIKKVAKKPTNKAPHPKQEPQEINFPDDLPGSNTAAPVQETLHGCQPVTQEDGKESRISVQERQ

| Binder | binding result [1] | binding result [2] | binding result [3] | binding result (CD95) | binding result (CD120a) | binding result [4] | Mean [5] | Mean [6] | Mean [7] | Mean [8] | Kd [9] | binding result [10] | binding result [11] | binding result [12] | binding result [13] |
| --- | --- | --- | --- | --- | --- | --- | --- | --- | --- | --- | --- | --- | --- | --- | --- |
| B1 | no binding | no binding (tested: 100 nM (text paragraph 226)) | no binding (tested: 100 nM (text paragraph 226)) | no binding (tested: 100 nM (text paragraph 226)) | no binding (tested: 100 nM (text paragraph 226)) | no binding |  |  |  |  |  |  |  |  |  |
| B2 |  |  |  |  |  |  | 18600 | 6660 | 9300 | 189000 | 10.1 nM | no binding (tested: 100 nM (text paragraph 226)) | no binding (tested: 100 nM (text paragraph 226)) | no binding (tested: 100 nM (text paragraph 226)) | no binding (tested: 100 nM (text paragraph 226)) |
